Assay results from the nanobody polyreactivity screen of Harvey et al. (2022).

Assay: yeast display, Sf9 membrane polyspecificity reagent, FACS + sequencing; frameworks hold sequencing errors
In short: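 Nanobodies came from a synthetic yeast display library in Saccharomyces cerevisiae BJ5465, induced with galactose for 36–48 hours and stained for 1 hour at 4 °C with 10% biotinylated, detergent-solubilized Sf9 membrane reagent. Cells were enriched on streptavidin microbeads and then FACS-sorted, with low and high (top ~1%) gates set on anti-HA fluorescence for expression and streptavidin fluorescence for reagent binding. Each polyreactivity label reflects the gate a clone came from. Genes were amplified by colony PCR, sequenced by MiSeq 2 × 250 and filtered by CDR length.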

Row | Sequence | polyreactivity (PSR sort gate)
1 | QVQLVESGGGLVQAGGSLRLSCAASGGTFIRYAMGWYRQAPGKEREFVAAISASGGSTYYADSVKGRFTISRDNAKNTVYLQMNSLKPEDTAVYYCAARRTNLPVKFYYWGQGTQVTVSS | high polyreactivity
2 | QVQLVESGGGLVQAGGSLRLSCAASGSIFYYFALGWYRQAPGTERELVAAISRSGGRTYYADSVKGRFTISRDNAKNPVYLHMNSLKPEDTAFYYCNTDGYYTTAKYGYWGQGTQVTVSS | high polyreactivity
3 | QVQLVESGGGLVQAGGSLRLSCAASGGTFRKNTMGWYRQAPGKERELVAAITRRADRTYYADSVKGRFTISRDNAKNTVYLQMNSLKPEDTAVYYCNAPPPPTKVGGYDYWGQGTQVTVSS | high polyreactivity
4 | QVQLVESGGGLVQAGGSLRLSSAASGRIFYNYAMGWYRQSPGKERELVAAISGSGGSTYYADSVKGRFTISRDNAKNTVYLQMNSLKPEDTAVFYCSTSGPQYYSRNFDYWGQGTQVTVSS | low polyreactivity
5 | QVQLVESGGGLVQAGGSLRLSCAASGSTFENNVMAWYRQAPGKERELVATITWGDGSTSYADSVKGRFTISRDNAKNTVYLQMNSLKPEDTAVYYCAADSAENVYRGYYWGQGTQVTVSS | low polyreactivity
6 | QVQLVESGGALVQAGGSLRLSCAASGRIFLKYTMGWYRQAPGKERELVAAISRGGSTYYADSVKGRFTISRDNAKNTVYLQMNSLKPEDTAVYYCAATSYRRTGYNYWGQGTQVTVSS | high polyreactivity
7 | QVQLVESGGGLVQAGGSLRLSCSASGSTFFSYAMGWYRQAPGKERELVATITSGGSTFADSVKWRFTISRDNAKNTVYLQMNSLKPEDTAVYYCNTDVVDCLFYHCECRFNYLGQGTQVTVSS | low polyreactivity
8 | QVQLVESGGGLVQAGGSLSLSCAASGIIFGLYTMGWYRQAPGKERELVAAISDSGGRTYYADSVKGRFTISRDNAKNTVYLQMNSLKPEETAVYYCAAEFWYVWEYNYWGQCTQVTVSS | high polyreactivity
9 | QVQLVESGGGLVQAGGSLRLSCAASGFIFDWNTMGWYRQAPGKERELVAAITESSGSTYYADSVKGRFTISRDNAKNTVYLQMNSLKPEDTAVYYCAADFSYVYYLYDYWGQGTQVTVSS | low polyreactivity
10 | QVQLVESGGGLVQAGGSLRLSCAATGSIFQSYAMGRYRQAPGKERELVAGISSGGSTNYADSVKGRFTISRDNAMNTDYLQMNSLKPEDTAVYYCATGGFAGASFAYEYYYWGQGTQVTVSS | low polyreactivity
11 | QVHLVESGGVLVQAGGSLRLSCAASGSPFTKYAMGWYRQAPGKERELVAAFTGGGGSTYYADSVKGRFTISRDNAKNTVYLQLNSLKPEDSAVYYCAAKVALSRFRQWSYDYWGQGTQVTVSS | low polyreactivity
12 | QVQLVESGGGLVQAGGSLRLSCAASGFIFYRYARGWYRQAPGQERELVAAITTSGARTYYADSVKGRFTISRDNAKNTVYLLMNSLKPEDTAGYSCAASPTPRVKMDYWGQGTQVTVSS | low polyreactivity
13 | QVQLVESGGGLVPAGGSLRLSCAASGFTFPAYTRGWYRPAPGKERELVAAITSSGGNTYYADSVKGRFTISRDNAKNTVYLQMNSLKPEDTAVYYCNADASSSPYTDRQYIGADDSWGQGTQVTVSS | low polyreactivity
14 | QVQLVESGGGLVQAGGSLRLSCAASGRTFFWYAMGWYRQAPGKERELVADISSSGGSTYYADSVKGRFTISRDNAKNTVYLQMNSLKPEDTAVYYCAALSPWWRGGYDYWGQGTQVTVSS | high polyreactivity
15 | QVQLEESGGGLVQAGGSLRLSCAASVSTFRLYVMGGYRQAPGKERQLVAAIDWSGGSTYYADSVKGRFTISRDNAKNTVYLQMNSLKPEDTAVYYCAADYSVASPDGPDVIYDYWGQGTQVTVSS | low polyreactivity
16 | QVQLVESGGGLVQAGGSLRLSCAASGSTFLYYAMGWYRQAPGKEREFVAAISISGGSTYYADSVKGRFTISRDNAKNTVYLQMNSLKPEDTAVYYCAARKKEYKPGNYWGQGTQVTVSS | low polyreactivity
17 | QVQLVESGGGLVQAGGSLSLSCAASGRTFVPYAMGWYRQAPGKERELVADITDGDGSTYADSVKGRFTISRDNAKNTVYLQMNSLKPEYTAVYYCAAQSRRLVTRWPVTFGYWGQGTQVTVSS | low polyreactivity
18 | QVQLVESGGGLVQAGGSLRLSCSASGSTFTWYAMGWYRQATGKERELVADISNGGGSTYYADSVKGRFTISRDNEKNTVYLQINSLKPEDTEVYYCAAESIPYYRYDYWGQGTQVTVSS | low polyreactivity
19 | QVQLVESGGGLVQAGGSLRLSCAASGRTFGVYAMGWYRQAPGKERELVATIRTTGSTNYADSVKGRFTISRDNAKNTVYLQMNSLKTEDTAVYYCGARQRQSKYYPYTTFTYDYWGQGTQVTVSS | high polyreactivity
20 | QVQLVESGGGLVQAGGSLRLSCAASGIIFGGYDMGWYRQAPGKERELVAAISWSGGSTYYADSVKGRFTISRDNAKNTVYLQMNSLKPEDTAVYYCAAAYYAPSRDYYYWGQGTQVTVSS | low polyreactivity
21 | QVQLVESGGGLVQAGGSLRLSCAASGSTIGPYAMGWSRQAPGKERELVAAITISGDSTNYADSVKGRFTISRDNAKNTVYLQMLSLKPEDTAVYYCAAAYYWLQSWYDYWGQGTLVTVSS | low polyreactivity
22 | QVQLVESGGGLVQAGGSLRLSCAASGFTFNYNARGWYSQAPGNDRELVAAIRRSGGSTYYADSGKGRFTISRDNAKNTVYLQMNSLKPEDTAVYYCAARQSFLYGYWGQGTQVTVSS | high polyreactivity

Row | Sequence | polyreactivity (PSR sort gate)
23 | QVQLVESGGGLVQAGGSLRLSCAASGRIFANAMGWYRQAPGKERELVAAISTSGGRTYYADSVKGRFTISRDNAKNTVYLQMNSLKPEDTAVYYCAARPHTPPVTSGYNHWGQGTQVTVSS | high polyreactivity
24 | QVQLEDSGGGLVQAGGSLRLICAASGSIIGTKAMGWYRQAPGKERELVAAIHWSGGTTYYADSVKGRFTISRDNAKNTVYFQMNSLKPDDTPVYDCATVFFVLPPTRFDAWGQGTLVTVSS | low polyreactivity
25 | QVQIVESGGGLVQPGGILRLSCAASGSTSQPYDMGWYRQAPGKEWELVASITKGRITYYADSVKGRFTISRDNAKNTVYLQMNSRKPEDTAVYYCNADNVFEGYDGRSARASYRYYSWGQGTQVTVSS | low polyreactivity
26 | QVQLVESGGGLVQAGGSLRLSCAASGIIFRGYAMRWYRQAPGKVREVVAVITSGGGTYYADSVKGRFTISRDNAKNNVYLQMNSLKPEETAVYYCNAASSLPGYDYWGQGTQVTVSS | high polyreactivity
27 | QVQLVESGGGLLQAGGSLRLSCAASGRIFRYYAMVWYIQAPVKERELVAGISWTGGTTYYADSVNGRFTISLDNAKNSVYLQMYSLKPEDSAVDYCIVRRSTLYDYWGQGTQVTVSS | high polyreactivity
28 | QVQLVESGGGLVQAGGSLRLSCAASGFIFAQNAMGWYRQAPGKERELVAAISGSGGRTYYADSVKGRFTISRDNAKNTVYLQMNSLKPEDTAVYYCAAQYFSGYWGQGTQVTVSS | high polyreactivity
29 | QVQLVESGGGLVQAGGSLRLSSAASGFTFSQYAMGWYRQAPGKERELVAAISVSGGTTYYADSVKGRFTISRDNAKNTVYLQMNSLKPEDTAVYYCAARTPYSRSPYVNTSGYYYWGQGTQVTVSS | high polyreactivity
30 | QVQLVESGGGLVQAGGSLRLSCAASGNTFTWYTMGWYRQAPGKERELVAVITSDGSTYYADSVKGRFTISRDNAKNTVYLQMNSLKPEDTAVYYCNKATVTGQESYAYDYWGQGTQVTVSS | low polyreactivity
31 | QVQLVKSGGGLVQAGGSLRLSCAASGSTFYNDMGGYIHSPGKEIELVAAISIGGSTYYADSVKGRFTISRDNANHTVYLQMSCLKPEDTAVYYCAAVWYTSRQKYDYWGQGTQVTVTS | low polyreactivity
32 | QVQLVESGGGLVQAGGSLRLSCAASGRIFKYYAMGWYRQAPGKERELVAAISRSGGSTYYADSVKGRFSISRDNAKNTVYLQMNSLKPEDTAVYYCAAGYKQATYDRIRTAYGYWGQGTQVTVSS | high polyreactivity
33 | QVQLVESGGGLVQAGGSLRLSCAASGLTFKTYAMGWYRQAPGKERELVAAITRNGGSTYYADSVKGRFTISRDNAKNTVYLQMNSLKPEDTAVYYCAARRAYDNRHDYWGQGTQVTVSS | high polyreactivity
34 | QVQLVESGGGLVQAGGSLRLSCAASGRTFYIYAMGWYRQAPGTERELVAAITGCGGSTYYADSVKGRFTISRDNAKNTVYLQMNSLKPEDTAVYYCAAGFYGDGYTQGYGYWGQGTQVTVSS | low polyreactivity
35 | QVQLVESGGGLVQAGGSLRLICAASGSIFFYYAMGWYRQAPGKERELVAAITKIGVGTFYADSVKGRFTISRDNAKNTVYLQMNSLKPEDTAVYYCNARTAWEGYDYWGQGTQVTVSS | low polyreactivity
36 | QVQLVESGGGLVQAGGSLRLSCGASGIIFLVNAMGWYRQAPGRERELVATITSGGSTYADSVKGRFTISRDNAKNTVYLQMNSLKPEDTAVYYCAAVRRRRNSYGYWGQGTQVTVSS | high polyreactivity
37 | QVQLVESGGGLVQAGGSLRLSCAASGFTFFSKAMGWYRQAPGKERELVAAITTNGGSTYYADSVKGRFTISRDNAKNTVYLQMNSLKPEETAVYYCAADYSLPWSWLYEYWGQGTQVTVSS | low polyreactivity
38 | QVQLVESGGGLVQAGGSLRLSFAASGFIFYRNTMGWYRQAPGKERELVAGITSGGRTNYADSVKGRFTISRDNAKNTVYLQMNSLKPEYTAVYYCNRVVYTYISTGSRHGRYNYWGQGTQVTVSS | high polyreactivity
39 | QDQHEESGGGLVQAGGSLRLICAASGLIFPRYAMGWYRPAPGKERELVAAITRGGSTYYADSVKGRFTISRDNAKNTVYLQMNSLKPEDTAVYYCNAELPVHWSWYDYWGQGTQVTVSS | low polyreactivity
40 | QVQLVESGGGLVQAGGSLRLSCAASGSTFYPYAMGWYRQAPGKERELVAGISWSGGSTYYADSVKGRFTISRDNAKNTVYLQMNSLKPEDTAVYSCAVDVYWSVIYDYWGQGTQVTVSS | low polyreactivity
41 | QVQLEESGGRLVQAGGSLRLSCAASGSTFITNAMGWYRQAPGKERELVAAITYSTGGTYYADSVKGRFTISRDNAKNTVYLQMNSLKPEDTAVYYCAALLYFFLYDYWGHGTQVTVSS | low polyreactivity
42 | QVQLVESGGGLVQAGGSLRLSCAASGSIFKGNVMGWYRQAPGKERELVAAITWSGGSTYYADSVKGRFTISRDNAKNTVYLQMNSLKPEDTAVYYCNTDRYHRVDFDYWGQGTQVTVSS | high polyreactivity
43 | QVPLVESGGGLVQAGGSLRLSCAASGSTFSGYAMGWYRQAPGKERELVATITSTGSTNYADSVKGRFTISRDNAKNTVYLQMNSLKPEDTAVYYCNARYLFVERYFLHYASVRYDYWGQGTQVTVST | low polyreactivity
